Source: patent publication US20130209454A1

How the values were obtained:
Experiment in all cases: cell-based or functional assay
[1] = target: HIV-1 Env of strain 1006_11_C3_1601 (HIV-1)
[2] = target: HIV-1 Env of strain 3103.v3.c10 (HIV-1)
[3] = target: HIV-1 Env of strain 3817.v2.c59 (HIV-1)
[4] = target: HIV-1 Env of strain 6540.v4.cl (HIV-1)
[5] = target: HIV-1 Env of strain 6811.v7.c18 (HIV-1)
[6] = target: HIV-1 Env of strain 703357.C02 (HIV-1)
[7] = target: HIV-1 Env of strain CAP45.2.00.G3 (HIV-1)
[8] = target: HIV-1 Env of strain CNE17 (HIV-1)
[9] = target: HIV-1 Env of strain CNE58 (HIV-1)
[10] = target: HIV-1 Env of strain Ce1176_A3 (HIV-1)
[11] = target: HIV-1 Env of strain Ce2010_F5 (HIV-1)
[12] = target: HIV-1 Env of strain Ce2060_G9 (HIV-1)
[13] = target: HIV-1 Env of strain Ce703010054_2A2 (HIV-1)
[14] = target: HIV-1 Env of strain P0402_c2_11 (HIV-1)
[15] = target: HIV-1 Env of strain Q259.d2.17 (HIV-1)
[16] = target: HIV-1 Env of strain R2184.c04 (HIV-1)
[17] = target: HIV-1 Env of strain REJO4541.67 (HIV-1)
[18] = target: HIV-1 Env of strain RHPA4259.7 (HIV-1)
[19] = target: HIV-1 Env of strain SC422661.8 (HIV-1)
[20] = target: HIV-1 Env of strain T255-34 (HIV-1)
[21] = target: HIV-1 Env of strain THRO4156.18 (HIV-1)
[22] = target: HIV-1 Env of strain X1254_c3 (HIV-1)
[23] = target: HIV-1 Env of strain ZM109F.PB4 (HIV-1)
[24] = target: HIV-1 Env of strain ZM214M.PL15 (HIV-1)
[25] = target: HIV-1 Env of strain ZM233M.PB6 (HIV-1)
[26] = target: HIV-1 strain 3301.v1.c24 envelope (gp120) (HIV-1)
[27] = target: HIV-1 strain 3415.v1.c1 envelope (gp120) (HIV-1)
[28] = target: HIV-1 strain 6545.v4.c1 envelope (gp120) (HIV-1)
[29] = target: HIV-1 strain 6811.v7.c18 envelope (gp120) (HIV-1)
[30] = target: HIV-1 strain 928-28 envelope (gp120) (HIV-1)
[31] = target: HIV-1 strain AC10.0.29 envelope (gp120) (HIV-1)
[32] = target: HIV-1 strain C1080.c03 envelope (gp120) (HIV-1)
[33] = target: HIV-1 strain C2101.c01 envelope (gp120) (HIV-1)
[34] = target: HIV-1 strain CAP45.2.00.G3 envelope (gp120) (HIV-1)
[35] = target: HIV-1 strain CNE20 envelope (gp120) (HIV-1)
[36] = target: HIV-1 strain Ce1176_A3 envelope (gp120) (HIV-1)
[37] = target: HIV-1 strain Du172.17 envelope (gp120) (HIV-1)
[38] = target: HIV-1 strain PVO.4 envelope (gp120) (HIV-1)
[39] = target: HIV-1 strain Q259.d2.17 envelope (gp120) (HIV-1)
[40] = target: HIV-1 strain Q461.e2 envelope (gp120) (HIV-1)
[41] = target: HIV-1 strain R2184.04 envelope (gp120) (HIV-1)
[42] = target: HIV-1 strain RHPA4259.7 envelope (gp120) (HIV-1)
[43] = target: HIV-1 strain T251-18 envelope (gp120) (HIV-1)
[44] = target: HIV-1 strain T278-50 envelope (gp120) (HIV-1)
[45] = target: HIV-1 strain THRO4156.18 envelope (gp120) (HIV-1)
[46] = target: HIV-1 strain X1193_c1 envelope (gp120) (HIV-1)
[47] = target: HIV-1 strain X2131_C1_B5 envelope (gp120) (HIV-1)
[48] = target: HIV-1 strain ZM233M.PB6 envelope (gp120) (HIV-1)
[49] = target: HIV-1 strain ZM247v1(Rev-) envelope (gp120) (HIV-1)
[50] = target: HIV-1 strain ZM249M.PL1 envelope (gp120) (HIV-1)

B1: NIH45-46^G54Y IgG (antibody, name in Kabat numbering, V domains shown)
VH: QVRLSQSGGQMKKPGESMRLSCRASGYEFLNCPINWIRLAPGRRPEWMGWLKPRYGAVNYARKFQGRVTMTRDVYSDTAFLELRSLTSDDTAVYFCTRGKYCTARDYYNWDFEHWGRGAPVTVSS
VL: EIVLTQSPATLSLSPGETAIISCRTSQSGSLAWYQQRPGQAPRLVIYSGSTRAAGIPDRFSGSRWGADYNLSISNLESGDFGVYYCQQYEFFGQGTKVQVDI
- neutralization IC50 [1]: 0.005 µg/mL
- neutralization IC50 [2]: 0.3 µg/mL
- neutralization IC50 [3]: > 50 µg/mL
- neutralization IC50 [4]: > 50 µg/mL
- neutralization IC50 [5]: 0.011 µg/mL
- neutralization IC50 [6]: 5.6 µg/mL
- neutralization IC50 [7]: > 50 µg/mL
- neutralization IC50 [8]: 0.073 µg/mL
- neutralization IC50 [9]: 0.04 µg/mL
- neutralization IC50 [10]: 0.21 µg/mL
- neutralization IC50 [11]: 0.049 µg/mL
- neutralization IC50 [12]: 0.021 µg/mL
- neutralization IC50 [13]: 0.022 µg/mL
- neutralization IC50 [14]: 0.012 µg/mL
- neutralization IC50 [15]: 0.009 µg/mL
- neutralization IC50 [16]: 0.015 µg/mL
- neutralization IC50 [17]: 0.007 µg/mL
- neutralization IC50 [18]: 0.007 µg/mL
- neutralization IC50 [19]: 0.04 µg/mL
- neutralization IC50 [20]: 0.04 µg/mL
- neutralization IC50 [21]: 0.66 µg/mL
- neutralization IC50 [22]: 0.013 µg/mL
- neutralization IC50 [23]: 0.026 µg/mL
- neutralization IC50 [24]: 0.06 µg/mL
- neutralization IC50 [25]: 0.16 µg/mL
- neutralization IC80 [26]: 0.014 µg/mL
- neutralization IC80 [27]: 0.037 µg/mL
- neutralization IC80 [28]: > 50 µg/mL
- neutralization IC80 [29]: 0.059 µg/mL
- neutralization IC80 [30]: 0.33 µg/mL
- neutralization IC80 [31]: 0.9 µg/mL
- neutralization IC80 [32]: 1.83 µg/mL
- neutralization IC80 [33]: 0.27 µg/mL
- neutralization IC80 [34]: > 50 µg/mL
- neutralization IC80 [35]: 2.4 µg/mL
- neutralization IC80 [36]: 0.58 µg/mL
- neutralization IC80 [37]: > 50 µg/mL
- neutralization IC80 [38]: 0.18 µg/mL
- neutralization IC80 [39]: 0.034 µg/mL
- neutralization IC80 [40]: 0.103 µg/mL
- neutralization IC80 [41]: 0.045 µg/mL
- neutralization IC80 [42]: 0.02 µg/mL
- neutralization IC80 [43]: 1.16 µg/mL
- neutralization IC80 [44]: > 50 µg/mL
- neutralization IC80 [45]: 2.14 µg/mL
- neutralization IC80 [46]: 0.024 µg/mL
- neutralization IC80 [47]: 0.39 µg/mL
- neutralization IC80 [48]: 0.78 µg/mL
- neutralization IC80 [49]: 3.57 µg/mL
- neutralization IC80 [50]: 0.011 µg/mL

B2: NIH45-46^G54W (antibody, V domains shown)
VH: QVRLSQSGGQMKKPGESMRLSCRASGYEFLNCPINWIRLAPGRRPEWMGWLKPRWGAVNYARKFQGRVTMTRDVYSDTAFLELRSLTSDDTAVYFCTRGKYCTARDYYNWDFEHWGRGAPVTVSS
VL: EIVLTQSPATLSLSPGETAIISCRTSQSGSLAWYQQRPGQAPRLVIYSGSTRAAGIPDRFSGSRWGADYNLSISNLESGDFGVYYCQQYEFFGQGTKVQVDI
- IC50, pseudovirus neutralization [1]: 0.001 µg/mL
- IC50, pseudovirus neutralization [2]: 0.2 µg/mL
- IC50, pseudovirus neutralization [3]: > 50 µg/mL
- IC50, pseudovirus neutralization [5]: 0.001 µg/mL
- IC50, pseudovirus neutralization [7]: 32.2 µg/mL
- IC50, pseudovirus neutralization [8]: 0.036 µg/mL
- IC50, pseudovirus neutralization [9]: 0.02 µg/mL
- IC50, pseudovirus neutralization [10]: 0.16 µg/mL
- IC50, pseudovirus neutralization [11]: 0.038 µg/mL
- IC50, pseudovirus neutralization [12]: 0.005 µg/mL
- IC50, pseudovirus neutralization [13]: 0.027 µg/mL
- IC50, pseudovirus neutralization [14]: 0.003 µg/mL
- IC50, pseudovirus neutralization [15]: 0.001 µg/mL
- IC50, pseudovirus neutralization [16]: 0.005 µg/mL
- IC50, pseudovirus neutralization [17]: 0.002 µg/mL
- IC50, pseudovirus neutralization [18]: 0.001 µg/mL
- IC50, pseudovirus neutralization [19]: 0.02 µg/mL
- IC50, pseudovirus neutralization [20]: 0.001 µg/mL
- IC50, pseudovirus neutralization [21]: 0.54 µg/mL
- IC50, pseudovirus neutralization [22]: 0.002 µg/mL
- IC50, pseudovirus neutralization [23]: 0.002 µg/mL
- IC50, pseudovirus neutralization [24]: 0.03 µg/mL
- IC50, pseudovirus neutralization [25]: 0.02 µg/mL
